These results are taken from US20230265179A1 (TWIST BIOSCIENCE, published 2023).

Assay [1] concerns the target T1, CD40L (UniProt P29965 113-261, limits assumed).
T1 construct: SPR analyte
T1 sequence (looked up): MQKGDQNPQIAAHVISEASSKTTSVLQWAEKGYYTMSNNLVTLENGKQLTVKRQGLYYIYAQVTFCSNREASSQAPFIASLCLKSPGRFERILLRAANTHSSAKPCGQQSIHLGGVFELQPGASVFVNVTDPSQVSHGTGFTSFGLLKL
The assay can be described thus: SPR (Carterra LSA), antibody amine-coupled, 1:1 model.
Procedure: SPR experiments were performed on a Carterra LSA SPR biosensor equipped with a HC30M chip at 25° C. in HBS-TE. Antibodies were diluted to 10 μg/mL and amine-coupled to the sensor chip by EDC/NHS activation, followed by ethanolamine HCl quenching. Increasing concentrations of analyte were flowed over the sensor chip in HBS-TE with 0.5 mg/mL BSA with 5-minute association and 15-minute dissociation. Following each injection cycle the surface was regenerated with 2× 30-second injections of IgG elution buffer (Thermo). Data were analyzed in Carterra's Kinetics Tool software with 1:1 binding model.

The target in assay [2] is T2, CD40L over-expressed on Expi293 cells (UniProt P29965 1-261, limits assumed).
T2 construct: whole, on cells; also called cytokine over-expressing Expi293 cells
T2 sequence (looked up): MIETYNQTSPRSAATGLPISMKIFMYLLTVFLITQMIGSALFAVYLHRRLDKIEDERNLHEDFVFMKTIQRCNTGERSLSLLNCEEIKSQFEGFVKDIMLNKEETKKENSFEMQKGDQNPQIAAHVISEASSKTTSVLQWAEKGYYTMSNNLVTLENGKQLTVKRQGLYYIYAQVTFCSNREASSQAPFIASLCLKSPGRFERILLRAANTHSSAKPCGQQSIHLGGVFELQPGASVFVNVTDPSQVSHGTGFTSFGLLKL
The assay is described as follows: flow cytometry, 100 nM antibody, CD40L-Expi293 vs parent Expi293 cells.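 Note: ratio is the mean fluorescence intensity on CD40L-overexpressing Expi293 cells divided by the mean fluorescence intensity on parental Expi293 cells.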 For orientation: Flow cytometry measures light scatter and fluorescence of single cells or particles in a stream.
Procedure: (§1) All incubations and washes were in buffer containing PBS+1% BSA. MFI Ratio is defined by the mean fluorescence intensity (MFI) of the cytokine over-expressing Expi293 cell over the Expi293 parent cell. […] EC50 was calculated in GraphPad Prism.

For assay [3], the target named is T3, IL1RL1 over-expressed on Expi293 cells (UniProt Q01638 19-556, limits assumed).
T3 construct: whole, on cells; Target of the flow cytometry MFI ratio (over-expressing cells over parent cells); also called cytokine over-expressing Expi293 cells
T3 sequence (looked up): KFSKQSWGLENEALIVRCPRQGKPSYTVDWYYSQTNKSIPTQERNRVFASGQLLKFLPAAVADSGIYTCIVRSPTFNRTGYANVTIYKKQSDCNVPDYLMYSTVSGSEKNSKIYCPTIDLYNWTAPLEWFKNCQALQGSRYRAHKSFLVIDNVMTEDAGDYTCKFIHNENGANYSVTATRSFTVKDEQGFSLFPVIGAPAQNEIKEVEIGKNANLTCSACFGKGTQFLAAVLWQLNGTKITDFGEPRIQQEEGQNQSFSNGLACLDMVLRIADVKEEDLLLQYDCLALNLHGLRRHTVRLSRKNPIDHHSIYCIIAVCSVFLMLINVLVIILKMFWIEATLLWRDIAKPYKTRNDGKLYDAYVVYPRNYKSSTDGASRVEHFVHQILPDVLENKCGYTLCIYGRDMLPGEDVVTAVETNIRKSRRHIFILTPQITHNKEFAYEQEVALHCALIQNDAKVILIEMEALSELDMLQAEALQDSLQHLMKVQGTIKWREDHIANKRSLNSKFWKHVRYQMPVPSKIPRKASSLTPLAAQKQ
The assay can be described thus: flow cytometry, 100 nM antibody, over-expressing Expi293 / parent cells.
Procedure: as §1

B1: CD40L-35 (VHH)
VHH: EVQLVESGGGLVQPGGSLRLSCAASGLTFSSYWMGWFRQAPGKERELVASITDGGSTNYADSVKGRFTISADNSKNTAYLQMNSLKPEDTAVYYCAVQVNGIWAWGQGTLVTVSS
As for B1, in assay [1], the Kd is not above 0.0842 nM, the koff was not above 1e-05 s⁻¹ and the on-rate constant (kon) amounted to 119000 M⁻¹ s⁻¹. Also, the “100 nM FACS (MFI Ratio)” value in assay [2] was determined as 29.5 ratio.

B2: CD40L-41 (VHH)
VHH: EVQLVESGGGLVQPGGSLRLSCAASGSTFSKHHAMGWFRQAPGKERELVASISSDNYTVYADSVKGRFTISADNSKNTAYLQMNSLKPEDTAVYYCAREAANYREPPLWGQGTLVTVSS
In assay [1], B2 yielded a Kd of 8.47 nM, an off-rate (koff) of 0.000685 s⁻¹ and an on-rate constant (kon) of 80800 M⁻¹ s⁻¹. Moreover, the “100 nM FACS (MFI Ratio)” value in assay [2] is 15.5 ratio.

B3: IL1RL1-34 (Fc fusion, not shown: a dimerising Fc or GST)
VHH: EVQLVESGGGLVQPGGSLRLSCAASGSTFSNAVMGWFRQAPGKEREFVAVIIDSRTTKYADSVKGRFTISADNSKNTAYLQMNSLKPEDTAVYYCAAVGGATTVTASEWDWGQGTLVTVSS
notes: VHH-Fc on IgG2 Fc
Take B3: the “100 nM FACS (MFI Ratio)” value in assay [3] is 476 MFI ratio.

B4: IL1RL1-38 (Fc fusion, not shown: a dimerising Fc or GST)
VHH: EVQLVESGGGLVQPGGSLRLSCAASGFTFSNHIMGWFRQAPGKERELVAVIIDSRTTKYADSVKGRFTISADNSKNTAYLQMNSLKPEDTAVYYCAAVGGATTVTASEWDWGQGTLVTVSS
notes: VHH-Fc on IgG2 Fc
For the molecule B4, the “100 nM FACS (MFI Ratio)” value in assay [3] was found to be 1.37 MFI ratio.

B5: CD40L-28 (VHH)
VHH: EVQLVESGGGLVQPGGSLRLSCAASGVTVDYSGMGWFRQAPGKEREFVSAISSYSGNTYYADSVKGRFTISADNSKNTAYLQMNSLKPEDTAVYYCAAAYGGGLYRDPRSYDWGQGTLVTVSS
As for B5, in assay [1], the Kd amounted to 2.87 nM, the dissociation rate constant (koff) amounted to 0.000445 s⁻¹ and the kon was 155000 M⁻¹ s⁻¹. Moreover, the “100 nM FACS (MFI Ratio)” value in assay [2] was 41.9 ratio.

B6: CD40L-59 (VHH)
VHH: EVQLVESGGGLVQPGGSLRLSCAASGFTLDYYAMGWFRQAPGKERELVASISNGGLSTYYADSVKGRFTISADNSKNTAYLQMNSLKPEDTAVYYCAADVGPTVKWGQGTLVTVSS
In assay [1], B6 registered a Kd of 1.27 nM, a koff of 0.000315 s⁻¹ and a kon of 248000 M⁻¹ s⁻¹. Moreover, the “100 nM FACS (MFI Ratio)” value in assay [2] was 66.7 ratio.

B7: CD40L-47 (VHH)
VHH: EVQLVESGGGLVQPGGSLRLSCAASGRTLVNYDMGWFRQAPGKEREFVAAISMSGEDTIYADSVKGRFTISADNSKNTAYLQMNSLKPEDTAVYYCTTGGGTRDYWGQGTLVTVSS
For B7, in assay [1], binding was characterised by a dissociation constant (Kd) of 2.38 nM, the off-rate constant (koff) was 0.000536 s⁻¹ and the association rate constant (kon) was determined as 225000 M⁻¹ s⁻¹. For the same molecule, the “100 nM FACS (MFI Ratio)” value in assay [2] amounted to 41.8 ratio.

B8: CD40L-24 (VHH)
VHH: EVQLVESGGGLVQPGGSLRLSCAASGGAFSVYAMGWFRQAPGKEREFLASISGSGGSTYYADSVKGRFTISADNSKNTAYLQMNSLKPEDTAVYYCARDGGTYGMDVWGQGTLVTVSS
In assay [1], B8 displayed a Kd of 5.74 nM, a koff of 0.000824 s⁻¹ and a kon of 143000 M⁻¹ s⁻¹. The “100 nM FACS (MFI Ratio)” value in assay [2] is 42.7 ratio.

B9: CD40L-33 (VHH)
VHH: EVQLVESGGGLVQPGGSLRLSCAASGNIFINNAMGWFRQAPGKEREFVASIEWDGGGAYYADSVKGRFTISADNSKNTAYLQMNSLKPEDTAVYYCARDGGTYGMDVWGQGTLVTVSS
Take B9: in assay [1], the Kd was determined as 2.63 nM, the koff is 0.000546 s⁻¹ and the association rate constant (kon) amounted to 208000 M⁻¹ s⁻¹. In addition, the “100 nM FACS (MFI Ratio)” value in assay [2] is 74.1 ratio.

B10: CD40L-36 (VHH)
VHH: EVQLVESGGGLVQPGGSLRLSCAASGFSLDDYAMGWFRQAPGKEREFVASVNWSGKDTYYADSVKGRFTISADNSKNTAYLQMNSLKPEDTAVYYCARDGGTYGMDVWGQGTLVTVSS
In assay [1], B10 had a dissociation constant (Kd) of 0.819 nM, a koff of 0.000353 s⁻¹ and a kon of 431000 M⁻¹ s⁻¹. The “100 nM FACS (MFI Ratio)” value in assay [2] stood at 59.2 ratio.

B11: CD40L-48 (VHH)
VHH: EVQLVESGGGLVQPGGSLRLSCAASGFTFSRYEMGWFRQAPGKEREFVAAVTEGGTTSYADSVKGRFTISADNSKNTAYLQMNSLKPEDTAVYYCAAESLGRWWGQGTLVTVSS
As to B11, in assay [1], the equilibrium dissociation constant (Kd) is 8.48 nM, the koff worked out at 0.000998 s⁻¹ and the kon turned out to be 118000 M⁻¹ s⁻¹. In assay [2], the “100 nM FACS (MFI Ratio)” value came out at 68.4 ratio.

B12: CD40L-39 (VHH)
VHH: EVQLVESGGGLVQPGGSLRLSCAASGGTLDDYVMGWFRQAPGKEREFVASIGRSGNSAVNTDYADSVKGRFTISADNSKNTAYLQMNSLKPEDTAVYYCAREPYSGTYYPRYWGQGTLVTVSS
B12: in assay [1], the Kd is 0.194 nM, the koff was 6.25e-05 s⁻¹ and the kon turned out to be 322000 M⁻¹ s⁻¹. For the same molecule, in assay [2], the “100 nM FACS (MFI Ratio)” value came to 114 ratio.

B13: CD40L-46 (VHH)
VHH: EVQLVESGGGLVQPGGSLRLSCAASGFTFSRYEMGWFRQAPGKEREWVASLYLNGDYPYYADSVKGRFTISADNSKNTAYLQMNSLKPEDTAVYYCAIPHGIAGRITWGQGTLVTVSS
On to B13, for which, in assay [1], the dissociation constant (Kd) was found to be 11.5 nM, the koff was 0.000576 s⁻¹ and the on-rate (kon) came out at 50200 M⁻¹ s⁻¹. For the same molecule, in assay [2], the “100 nM FACS (MFI Ratio)” value is 45.7 ratio.

B14: CD40L-25 (VHH)
VHH: EVQLVESGGGLVQPGGSLRLSCAASGFTFSRYEMGWFRQAPGKEREFVAAVTEDGSINYADSVKGRFTISADNSKNTAYLQMNSLKPEDTAVYYCAAVYVSTWGNGYDWGQGTLVTVSS
Regarding B14, in assay [1], the Kd worked out at 1.2 nM, the off-rate constant (koff) worked out at 0.000176 s⁻¹ and the kon stood at 147000 M⁻¹ s⁻¹. In addition, the “100 nM FACS (MFI Ratio)” value in assay [2] was found to be 93.2 ratio.

B15: CD40L-57 (VHH)
VHH: EVQLVESGGGLVQPGGSLRLSCAASGFTFSRYEMGWFRQAPGKEREFVATITEGGARNYADSVKGRFTISADNSKNTAYLQMNSLKPEDTAVYYCAAVYVSTWGNGYDWGQGTLVTVSS
In assay [1], B15 yielded a dissociation constant Kd of 2.92 nM, a dissociation rate constant (koff) of 0.000769 s⁻¹ and an on-rate constant (kon) of 263000 M⁻¹ s⁻¹. Besides, the “100 nM FACS (MFI Ratio)” value in assay [2] turned out to be 64 ratio.

B16: CD40L-51 (VHH)
VHH: EVQLVESGGGLVQPGGSLRLSCAASGYFASWYYMGWFRQAPGKEREEVATFYTGDGRTYYADSVKGRFTISADNSKNTAYLQMNSLKPEDTAVYYCAAWLNGGNRWGQGTLVTVSS
In assay [1], B16 registered a dissociation constant (Kd) not above 0.174 nM, an off-rate (koff) not above 1e-05 s⁻¹ and a kon of 57600 M⁻¹ s⁻¹. The “100 nM FACS (MFI Ratio)” value in assay [2] was determined as 76.6 ratio.

B17: CD40L-55 (VHH)
VHH: EVQLVESGGGLVQPGGSLRLSCAASGLPFSTLHMGWFRQAPGKEREFVAAISRSGNLKAYADSVKGRFTISADNSKNTAYLQMNSLKPEDTAVYYCAADDYLGGDNWYLGPYDWGQGTLVTVSS
For B17, in assay [1], the affinity, expressed as Kd, was 10 nM; the koff came out at 0.0001 s⁻¹; the kon came to 10000 M⁻¹ s⁻¹. The “100 nM FACS (MFI Ratio)” value in assay [2] stood at 3.2 ratio.

B18: CD40L-34 (VHH)
VHH: EVQLVESGGGLVQPGGSLRLSCAASGRTISNAAMGWFRQAPGKEREFVAAISFRGDSAIYADSVKGRFTISADNSKNTAYLQMNSLKPEDTAVYYCARDAAGDYYYNLDVWGQGTLVTVSS
In assay [1], B18 had a Kd of 9.87 nM, a koff of 0.000637 s⁻¹ and a kon of 64500 M⁻¹ s⁻¹. Also, the “100 nM FACS (MFI Ratio)” value in assay [2] is 76.7 ratio.

B19: CD40L-29 (VHH)
VHH: EVQLVESGGGLVQPGGSLRLSCAASGRTFSSYAMGWFRQAPGKEREFVAVIYSSDGSTLYADSVKGRFTISADNSKNTAYLQMNSLKPEDTAVYYCAAEHTLGRPSRSQINYLWGQGTLVTVSS
In assay [1], B19 yielded a Kd of 33.6 nM, a dissociation rate constant (koff) of 0.000801 s⁻¹ and a kon of 23800 M⁻¹ s⁻¹. In addition, in assay [2], the “100 nM FACS (MFI Ratio)” value amounted to 4.7 ratio.

B20: CD40L-38 (VHH)
VHH: EVQLVESGGGLVQPGGSLRLSCAASGVTFSSYDMGWFRQAPGKEREFVAAINWSGGSRSYADSVKGRFTISADNSKNTAYLQMNSLKPEDTAVYYCAIPRFRPYEYDWGQGTLVTVSS
In assay [1], B20 came in with a Kd of 8.61 nM, a koff of 0.00052 s⁻¹ and an on-rate constant (kon) of 60300 M⁻¹ s⁻¹. In assay [2], the “100 nM FACS (MFI Ratio)” value turned out to be 49 ratio.

What is called Kd is a measure of binding affinity in units of concentration. Higher therefore signals a looser complex. As a reminder, the koff is the first-order rate constant of dissociation. A word on the kon: it is the rate constant with which the complex forms. A low value points to slow association.
